Consider 2 substances from article PMC2975895.

One may read the stoichiometry N as a count of units in the complex or per binding partner.

Experiment [1] deals with AxxA-SurR (SurR C23A C26A variant) (Pyrococcus furiosus). The experiment can be described thus: crystal structure.
Experiment [2] shares this target. Put plainly: SEC.
Experiment [3] deals with SurR oxidized with diamide or colloidal S^0 (Pyrococcus furiosus). The experiment can be described thus: SEC. Background: In gel filtration, larger molecules generally elute earlier.

With “AxxA-SurR (SurR C23A C26A variant) (natural protein)”, the stoichiometry N in experiment [1] and in experiment [2] was 2 in each case.
“SurR oxidized with diamide or colloidal S^0 (natural protein)”: the stoichiometry N in experiment [3] worked out at 2.
